In patent US8431396B2, “Anti-angiogenic peptides” (The Cleveland Clinic Foundation, priority 2003, dated 2013):

Columns and labels:
[1] = tested on: chick embryo chorioallantoic membrane (CAM); assay: Chick embryo chorioallantoic membrane (CAM) assay of VEGF-mediated angiogenesis; type: in vivo, chicken; conditions: VEGF165 100 ng
Text: The CAM assay was done as described with slight modifications. Fertilized 3-day-old white Leghorn eggs (Sunnyside, Beaver Dam, Wis.) were cracked and embryos with the yolk intact were placed in glass-bottomed Petri dishes. […] Angiogenesis was reported as the angiogenic index (mean number of tertiary branchpoints from experimental conditions minus the mean number of branchpoints from buffer controls with no angiogenic stimulator).

[2] = tested on: PAE-KDR cells; assay: Endothelial cell proliferation in response to VEGF165 and VEGF121; type: cell-based, porcine
Description: (§1) (A) Proliferative response of PAE-KDR cells to VEGF165 (5 ng/ml; left) and VEGF121 (30 ng/ml; right). […] (C) DNA synthesis of endothelial cells in response to VEGF165. […] [3H]thymidine incorporation was measured during the last 5 h of incubation. (D) Analysis of endothelial cell expressing TIMP3. […] Expression of TIMP3 protein was determined by immunoblotting with antibody against TIMP3 (top left). MMP-inhibitory activity was determined by reverse zymography (top right). Corresponding densito-metric quantitation is expressed as arbitrary optical density (OD) units±s.d. (C) DNA synthesis in adenovirus-infected cells in response to VEGF. […] In all proliferation experiments, total number of cells was counted at 48 h. Proliferating cell number is expressed as means±s.e.m. of quadruplicate samples. DNA synthesis data represent the means±s.e.m. of triplicate samples; similar results were obtained in at least 2 different experiments. *, P<0.01.
(§2) A modified Boyden chamber assay for migration and proliferation assays were carried out as described.

[3] = tested on: endothelial cells; assay: DNA synthesis ([3H]thymidine uptake) of endothelial cells in response to VEGF165; type: cell-based; conditions: TIMP3 at 1 μg/ml and 10 μg/ml
Description: as §1, §2

[4] = molecular target: T1, KDR (Homo sapiens, UniProt P35968); assay: VEGF165-induced KDR phosphorylation (immunoprecipitation/immunoblot); type: cell-based; conditions: 1 μg/ml; PAE-KDR cells
T1 construct: To determine whether these receptor isoforms represent full-length VEGFR-2; expressed in transfected cells; host or cells: porcine aortic endothelial (PAE) cells
Description: (§3) PDGF-BB-mediated phosphorylation was examined similarly in PAESPDGFR-β cells (anti-PDGFR-β; top right panel). […] PDGF-BB-mediated phosphorylation of PDGFR-β in PAE-PDGFR-β cells overexpressing TIMP3 (top right). KDR protein or PDGFR-β protein was analyzed by both immunoprecipitation and immunoblotting with antibodies specific for KDR (left) or for PDGFR-β (right; A and B, second panels from top). […] Total protein levels of ERK were determined by immunoblotting with antibodies specific for ERK1/2 (anti-ERK1/2; A and B, bottom).
(§4) Cell fractions, prepared as described earlier, or immunoprecipitates of the lysates with the indicated antibodies, were subjected to SDS-PAGE. Proteins were detected with horseradish peroxidase-conjugated antibodies specific for either rabbit or mouse IgG (Amersham Pharmacia, Piscataway, N.J.) followed by enhanced chemiluminescence.

[5] = molecular target: T2, PDGFR-β (Homo sapiens, UniProt P09619); assay: PDGF-BB-induced PDGFR-β phosphorylation (immunoprecipitation/immunoblot); type: cell-based; conditions: 1 μg/ml; PAE-PDGFR-β cells
T2 construct: expressed in transfected cells; host or cells: porcine aortic endothelial (PAE) cells
Description: as §3, §4

[6] = molecular target: T3, soluble FLT1-IgG (Homo sapiens, UniProt P17948); assay: Solid-phase binding of [125I]VEGF165 to soluble FLT1-IgG; conditions: similar doses as for KDR-IgG
T3 construct: purchased R&D Systems
Description: (B) Expression of KDR in the lysate and plasma membrane (PM) of PAE-KDR and PAE-KDR-TIMP3 was analyzed by immunoprecipitation (Ip) and western blot (Ib) analysis with antibody specific for KDR. […] Values are the mean±s.e.m. of triplicate wells.
Soluble KDR-Fc or FLT1-Fc (50 ng) was added to each well. […] After washing, the bound protein was solubilized with 1% SDS and 1 M NaOH and radioactivity measured in a γ-counter.

[7] = molecular target: T4, VEGFR-2 (KDR) (Homo sapiens, UniProt P35968); assay: [125I]VEGF binding in transfected PAEKDR cell lines; conditions: PAEKDR cells expressing WT-TIMP3
T4 construct: To determine whether these receptor isoforms represent full-length VEGFR-2; expressed in transfected cells; host or cells: porcine aortic endothelial (PAE) cells
Description: PAEKDR cells were transfected with TIMP3 cDNA or empty vector using Lipofectamine reagent (Gibco-BRL Rockville, Md.). Stable clones were isolated using Hygromycin selection.
After washing, the cell monolayers were solubilized with lysis buffer (20 mM Tris HCl pH 7.5, 1% triton X 100 and 10% glycerol), and the radioactivity measured in a gamma counter.

[8] = tested on: MMPs; assay: Reverse zymography of ECM and CM of transfected PAEKDR cells; type: biochemical; conditions: PAEKDR cells expressing WT or mutant TIMP3
Description: Conditioned medium, cell lysates and ECM fractions from transfected cells were prepared as described previously (Qi et al., 2002). Equal amounts of protein were loaded onto a 12% gel with 1 mg/ml gelatin plus RPE cell-conditioned media, as a source of MMPs, for reverse zymography and processed as described previously (Pavloff et al., 1992).

[9] = tested on: PAEKDR cells; assay: VEGF-stimulated proliferation ([3H]thymidine) of transfected PAEKDR cells; type: cell-based, porcine; conditions: VEGF 15 ng/ml
Description: Cells were seeded at a density of 5000 cells/well in 24 well culture plates and cultured for 24 h in growth medium. […] High molecular weight DNA was precipitated using 5% trichloroacetic acid at 4° C. for 30 min After two washes with ice-cold H2O, 3H radioactivity was solubilized in 1 N NaOH for 20 min at room temperature, acidified by addition of 2 N HCl, and measured using a liquid scintillation counter. Each sample was assayed in triplicate and the assays were repeated at least twice.

[10] = tested on: PAEKDR cells; assay: VEGF-stimulated migration (modified Boyden chamber) of transfected PAEKDR cells; type: cell-based, porcine; conditions: VEGF 50 ng/ml
Description: A modified Boyden chamber assay was carried out as described previously 34. Briefly, 8.0 μm pore PVPF polycarbonate membranes were pre-coated with 100 μg/ml collagen type I in 0.2 N acetic acid (Cohesion technologies, INC. Pala Alto, Calif.). […] Chamber was then incubated for 4 hrs at 37° C. in a 5% CO2 humidified incubator. Cells remaining on the top of the filter were removed. Cells on the bottom surface of the filter were fixed, stained and mounted. The number of migrating cells per well was counted microscopically.

[11] = tested on: PAEKDR cells; assay: Tube formation assay in type 1 collagen gels; type: cell-based, porcine; conditions: 50 ng/ml VEGF; three-dimensional collagen gels
Description: Type 1 collagen was mixed with 10×DMEM and 0.1 M NaOH (8:1:1), adjusted to a solution containing 10 μg/ml growth factor reduced matrigel matrix (BD, Biosciences), and then distributed in 48-well dishes. […] After 4 h of incubation at 37° C., a second layer of collagen was added, and cultures were kept under the same conditions as above described. Tube formation was examined using a phase-contrast microscopy at the indicated time points.

T3 sequence (P17948 27-758 limits assumed): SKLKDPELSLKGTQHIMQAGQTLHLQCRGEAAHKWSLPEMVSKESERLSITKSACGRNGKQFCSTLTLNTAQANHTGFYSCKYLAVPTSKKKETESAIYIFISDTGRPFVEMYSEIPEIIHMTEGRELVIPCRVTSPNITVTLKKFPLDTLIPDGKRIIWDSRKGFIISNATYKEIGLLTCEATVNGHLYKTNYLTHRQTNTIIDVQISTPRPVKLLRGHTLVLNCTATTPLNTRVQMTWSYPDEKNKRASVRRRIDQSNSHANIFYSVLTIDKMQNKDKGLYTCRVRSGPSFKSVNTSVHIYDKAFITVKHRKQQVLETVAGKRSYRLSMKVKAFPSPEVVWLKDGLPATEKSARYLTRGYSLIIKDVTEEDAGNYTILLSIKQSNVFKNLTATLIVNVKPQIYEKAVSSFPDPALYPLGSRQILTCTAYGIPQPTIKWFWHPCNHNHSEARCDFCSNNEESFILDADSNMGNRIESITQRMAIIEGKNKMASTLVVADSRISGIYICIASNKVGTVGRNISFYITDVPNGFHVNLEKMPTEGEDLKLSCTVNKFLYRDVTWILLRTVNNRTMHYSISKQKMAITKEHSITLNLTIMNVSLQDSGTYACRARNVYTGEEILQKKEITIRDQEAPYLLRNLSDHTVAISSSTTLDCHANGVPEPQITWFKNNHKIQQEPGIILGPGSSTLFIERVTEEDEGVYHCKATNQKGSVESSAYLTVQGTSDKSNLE
T4 sequence (P35968 20-1356): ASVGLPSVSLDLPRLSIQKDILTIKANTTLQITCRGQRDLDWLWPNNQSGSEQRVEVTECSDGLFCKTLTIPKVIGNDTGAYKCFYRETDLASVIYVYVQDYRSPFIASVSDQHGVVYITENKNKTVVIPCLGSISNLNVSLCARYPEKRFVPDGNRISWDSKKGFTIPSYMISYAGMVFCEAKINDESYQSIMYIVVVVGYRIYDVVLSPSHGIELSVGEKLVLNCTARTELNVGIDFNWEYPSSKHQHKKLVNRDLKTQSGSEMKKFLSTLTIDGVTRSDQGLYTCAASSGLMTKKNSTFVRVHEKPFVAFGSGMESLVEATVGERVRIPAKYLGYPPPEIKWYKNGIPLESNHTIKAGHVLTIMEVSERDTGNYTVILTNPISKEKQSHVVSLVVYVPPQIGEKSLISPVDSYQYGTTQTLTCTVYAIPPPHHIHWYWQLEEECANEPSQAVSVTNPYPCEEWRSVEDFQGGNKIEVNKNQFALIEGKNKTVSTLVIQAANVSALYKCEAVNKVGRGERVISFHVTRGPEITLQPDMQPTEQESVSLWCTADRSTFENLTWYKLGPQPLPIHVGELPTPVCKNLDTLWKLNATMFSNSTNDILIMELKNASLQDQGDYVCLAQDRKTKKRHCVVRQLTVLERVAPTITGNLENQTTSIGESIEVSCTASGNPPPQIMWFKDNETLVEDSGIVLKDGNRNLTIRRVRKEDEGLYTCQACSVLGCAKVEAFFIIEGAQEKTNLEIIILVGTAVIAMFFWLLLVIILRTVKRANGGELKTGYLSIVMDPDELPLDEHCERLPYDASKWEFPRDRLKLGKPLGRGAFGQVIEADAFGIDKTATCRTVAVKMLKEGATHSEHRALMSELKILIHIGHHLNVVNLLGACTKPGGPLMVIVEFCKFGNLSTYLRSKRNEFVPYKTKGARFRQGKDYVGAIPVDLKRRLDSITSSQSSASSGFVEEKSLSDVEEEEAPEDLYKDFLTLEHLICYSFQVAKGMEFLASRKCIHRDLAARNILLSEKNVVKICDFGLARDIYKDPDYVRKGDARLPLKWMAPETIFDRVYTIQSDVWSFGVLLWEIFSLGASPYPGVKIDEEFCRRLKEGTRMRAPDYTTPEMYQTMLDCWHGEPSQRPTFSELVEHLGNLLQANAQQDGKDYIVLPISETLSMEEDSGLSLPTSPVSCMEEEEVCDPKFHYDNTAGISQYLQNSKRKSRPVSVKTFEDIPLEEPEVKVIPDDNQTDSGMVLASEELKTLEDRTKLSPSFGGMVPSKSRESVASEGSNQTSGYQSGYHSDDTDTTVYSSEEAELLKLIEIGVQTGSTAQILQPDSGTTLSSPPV
T1 sequence (P35968 20-1356): as above
T2 sequence (P09619 33-1106, species assumed): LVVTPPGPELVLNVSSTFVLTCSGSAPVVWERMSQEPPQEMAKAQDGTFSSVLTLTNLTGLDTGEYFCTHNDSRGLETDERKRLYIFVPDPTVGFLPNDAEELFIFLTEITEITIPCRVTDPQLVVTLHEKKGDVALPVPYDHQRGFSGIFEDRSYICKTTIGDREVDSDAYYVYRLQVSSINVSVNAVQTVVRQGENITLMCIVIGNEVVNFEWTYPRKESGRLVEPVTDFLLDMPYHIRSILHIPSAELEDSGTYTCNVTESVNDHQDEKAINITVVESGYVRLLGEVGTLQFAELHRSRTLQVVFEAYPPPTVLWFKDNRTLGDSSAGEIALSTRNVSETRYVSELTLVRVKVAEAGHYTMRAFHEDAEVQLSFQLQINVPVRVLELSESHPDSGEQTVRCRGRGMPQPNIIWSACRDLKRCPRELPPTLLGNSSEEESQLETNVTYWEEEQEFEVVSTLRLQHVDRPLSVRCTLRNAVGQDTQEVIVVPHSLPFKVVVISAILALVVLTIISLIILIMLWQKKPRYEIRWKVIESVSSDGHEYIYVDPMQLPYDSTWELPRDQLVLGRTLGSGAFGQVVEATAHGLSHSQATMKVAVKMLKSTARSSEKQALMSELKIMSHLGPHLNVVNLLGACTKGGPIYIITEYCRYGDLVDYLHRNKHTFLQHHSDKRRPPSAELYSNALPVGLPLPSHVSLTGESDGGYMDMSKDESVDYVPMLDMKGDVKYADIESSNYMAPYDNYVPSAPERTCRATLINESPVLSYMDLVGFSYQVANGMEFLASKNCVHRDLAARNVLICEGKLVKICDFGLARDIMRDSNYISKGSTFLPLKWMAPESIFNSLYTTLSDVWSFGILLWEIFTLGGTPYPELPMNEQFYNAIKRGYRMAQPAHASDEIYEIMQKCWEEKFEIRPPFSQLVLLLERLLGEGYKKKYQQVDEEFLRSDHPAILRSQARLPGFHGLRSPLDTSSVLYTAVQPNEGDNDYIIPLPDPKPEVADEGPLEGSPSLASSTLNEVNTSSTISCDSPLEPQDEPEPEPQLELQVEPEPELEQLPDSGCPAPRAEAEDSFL

B1: TIMP3: tissue inhibitor of metalloproteinases-3; recombinant human form expressed in NSO myeloma cells, or wild-type expressed in transfected cells (protein, listed as Homo sapiens)
chain: MTPWLGLIVLLGSWSLGDWGAEACTCSPSHPQDAFCNSDIVIRAKVVGKKLVKEGPFGTLVYTIKQMKMYRGFTKMPHVQYIHTEASESLCGLKLEVNKYQYLLTGRVYDGKMYTGLCNFVERWDQLTLSQRKGLNYRYHLGCNCKIKSCYYLPCFVTSKNECLWTDMLSNFGYPGYQSKHYACIRQKGGYCSWYRGWAPPDKSIINATDP
CAMs in which VEGF-induced branching and leakage of blood vessels were inhibited ([1]; 0.75 μg/disk, n=8): 75%
CAMs in which VEGF-induced branching and leakage of blood vessels were inhibited ([1]; […], n=10): 90%
inhibition of proliferative response to VEGF165 and VEGF121 ([2]; added exogenously at 0.3-1 μg/ml): inhibited the proliferative response
proliferative response to VEGF165 and VEGF121 ([2]; over-expression of TIMP3 in endothelial cells): attenuation of the proliferative response
dose required to block the biological responses of in vivo angiogenesis, endothelial cell proliferation and migration ([2]; summary over CAM, proliferation and migration assays): 0.3-3 μg/ml
inhibition of DNA synthesis in response to VEGF165 ([3H]thymidine uptake) [3]: could also inhibit DNA synthesis
inhibition of VEGF165-induced phosphorylation of KDR [4]: strongly inhibited
effect on phosphorylation of PDGFR-β stimulated with PDGF-BB [5]: did not affect
inhibition of [125I]VEGF binding to soluble FLT1-IgG [6]: could not inhibit
effect on binding of [125I] VEGF to KDR [7]: dramatically inhibited the binding
MMP inhibitory activity in ECM and CM (reverse zymography) [8]: marked MMP inhibitory species
VEGF-stimulated proliferation of cells expressing TIMP3 variant [9]: dramatic attenuation in the VEGF response
VEGF-stimulated migration of cells expressing TIMP3 variant [10]: dramatically reduced basal and VEGF-stimulated migration
VEGF-stimulated tube formation [11]: severely compromised
